Measured values reported in patent US20250064952A1 (ACCELERON PHARMA, published 2025).

T1: BMP6 (UniProt P22004 382-513, limits assumed)
T1 sequence (looked up): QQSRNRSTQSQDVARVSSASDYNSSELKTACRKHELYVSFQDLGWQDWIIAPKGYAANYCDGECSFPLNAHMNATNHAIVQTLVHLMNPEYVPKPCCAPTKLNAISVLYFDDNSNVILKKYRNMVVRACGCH

T2: activin AC (UniProt P08476 311-426; P55103 237-352)
T2 construct: Heterodimer of beta A and beta C
T2 sequence (looked up) 1: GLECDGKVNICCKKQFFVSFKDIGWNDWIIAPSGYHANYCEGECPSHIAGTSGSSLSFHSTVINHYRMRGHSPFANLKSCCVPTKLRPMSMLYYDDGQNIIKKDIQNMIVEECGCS
T2 sequence (looked up) 2: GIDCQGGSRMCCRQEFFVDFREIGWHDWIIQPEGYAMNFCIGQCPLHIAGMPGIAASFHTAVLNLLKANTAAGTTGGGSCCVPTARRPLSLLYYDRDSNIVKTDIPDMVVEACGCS

T3: BMP5 (UniProt P22003 317-454, limits assumed)
T3 sequence (looked up): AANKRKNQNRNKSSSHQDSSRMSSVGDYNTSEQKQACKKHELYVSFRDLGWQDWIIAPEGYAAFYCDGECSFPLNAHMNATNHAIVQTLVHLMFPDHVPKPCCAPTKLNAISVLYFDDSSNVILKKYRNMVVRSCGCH

T4: GDF8 (UniProt O14793 267-375)
T4 construct: also called myostatin
T4 sequence (looked up): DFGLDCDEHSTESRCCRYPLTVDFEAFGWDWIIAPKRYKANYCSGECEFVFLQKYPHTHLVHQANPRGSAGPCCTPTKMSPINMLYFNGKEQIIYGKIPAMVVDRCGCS

T5: activin B (UniProt P09529 293-407)
T5 sequence (looked up): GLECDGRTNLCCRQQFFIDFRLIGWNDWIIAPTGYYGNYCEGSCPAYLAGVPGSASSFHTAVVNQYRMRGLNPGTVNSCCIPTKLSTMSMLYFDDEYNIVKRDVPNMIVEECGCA

B1: GDF11 (ligand, UniProt O95390 299-407, looked up)
chain: NLGLDCDEHSSESRCCRYPLTVDFEAFGWDWIIAPKRYKANYCSGQCEYMFMQKYPHTHLVQQANPRGSAGPCCTPTKMSPINMLYFNDKQQIIYGKIPGMVVDRCGCS
notes: also called BMP11
B2: BMP10 (ligand, UniProt O95393 317-424, looked up)
chain: NAKGNYCKRTPLYIDFKEIGWDSWIIAPPGYEAYECRGVCNYPLAEHLTPTKHAIIQALVHLKNSQKASKACCVPTKLEPISILYLDKGVVTYKFKYEGMAVSECGCR
B3: activin A (ligand, UniProt P08476 311-426, looked up)
chain: T2 sequence (looked up) 1
B4: GDF3 (ligand, UniProt Q9NR23 251-364, looked up)
chain: AAIPVPKLSCKNLCHRHQLFINFRDLGWHKWIIAPKGFMANYCHGECPFSLTISLNSSNYAFMQALMHAVDPEIPQAVCIPTKLSPISMLYQDNNDNVILRHYEDMVVDECGCG
notes: also called VGR2
B5: BMP9 (ligand, UniProt Q9UK05 320-429, looked up)
chain: SAGAGSHCQKTSLRVNFEDIGWDSWIIAPKEYEAYECKGGCFFPLADDVTPTKHAIVQTLVHLKFPTKVGKACCVPTKLSPISVLYKDDMGVPTLKYHYEGMSVAECGCR
notes: also called GDF2
B6: ActRIIB-Fc homodimer (Fc fusion, human, UniProt Q13705 19-137, looked up, not shown: a dimerising Fc or GST)
chain: SGRGEAETRECIYYNANWELERTNQSGLERCEGEQDKRLHCYASWRNSSGTIELVKKGCWLDDFNCYDRQECVATEENPQVYFCCCEGNFCNERFTHLPEAGGPEVTYEPPPTAPTLLT
notes: extracellular domain; also called unmodified ActRIIB-Fc homodimer; ActRIIB-Fc:ActRIIB-Fc homodimer
B7: ActRIIB-Fc:ActRIIB(L79E)-Fc heterodimer (Fc fusion)
chain 1: GRGEAETRECIYYNANWELERTNQSGLERCEGEQDKRLHCYASWRNSSGTIELVKKGCWLDDFNCYDRQECVATEENPQVYFCCCEGNFCNERFTHLPEAGGPEVTYEPPPTAPTGGGTHTCPPCPAPELLGGPSVFLFPPKPKDTLMISRTPEVTCVVVDVSHEDPEVKFNWYVDGVEVHNAKTKPREEQYNSTYRVVSVLTVLHQDWLNGKEYKCKVSNKALPAPIEKTISKAKGQPREPQVYTLPPSRKEMTKNQVSLTCLVKGFYPSDIAVEWESNGQPENNYKTTPPVLKSDGSFFLYSKLTVDKSRWQQGNVFSCSVMHEALHNHYTQKSLSLSPGK
chain 2: GRGEAETRECIYYNANWELERTNQSGLERCEGEQDKRLHCYASWRNSSGTIELVKKGCWEDDFNCYDRQECVATEENPQVYFCCCEGNFCNERFTHLPEAGGPEVTYEPPPTAPTGGGTHTCPPCPAPELLGGPSVFLFPPKPKDTLMISRTPEVTCVVVDVSHEDPEVKFNWYVDGVEVHNAKTKPREEQYNSTYRVVSVLTVLHQDWLNGKEYKCKVSNKALPAPIEKTISKAKGQPREPQVYTLPPSREEMTKNQVSLTCLVKGFYPSDIAVEWESNGQPENNYDTTPPVLDSDGSFFLYSDLTVDKSRWQQGNVFSCSVMHEALHNHYTQKSLSLSPG
notes: also called ActRIIB-Fc:ActRIIB(L79E)-Fc heteromer

Tests used:
ActRIIB-Fc homodimer [1] = biological target: B6; test: SPR (Biacore), anti-Fc capture, ligand in flow
Procedure: (§1) A Biacore™-based binding assay was used to compare ligand binding selectivity of the ActRIIB-Fc:ALK7-Fc heterodimeric complex described above with that of ActRIIB-Fc and ALK7-Fc homodimeric complexes. The ActRIIB-Fc:ALK7-Fc heterodimer, ActRIIB-Fc homodimer, and ALK7-Fc homodimer were independently captured onto the system using an anti-Fc antibody. Ligands were injected and allowed to flow over the captured receptor protein. Results are summarized in the table below, in which ligand off-rates (kd) most indicative of effective ligand traps are denoted by bold font.

ActRIIB-Fc homodimer [2] = biological target: B6; test: SPR (Biacore), 37 C, anti-Fc capture, ligand in flow
Procedure: (§2) A Biacore™-based binding assay was used to compare the ligand binding kinetics of an ActRIIB-Fc:ActRIIB(L79E)-Fc heterodimer with those of unmodified ActRIIB-Fc homodimer. Fusion proteins were captured onto the system using an anti-Fc antibody. Ligands were then injected and allowed to flow over the captured receptor protein at 37° C. Results are summarized in the table below, in which ligand off-rates (kd) most indicative of effective ligand traps are denoted in bold.

ActRIIB-Fc homodimer [3] = biological target: B6; test: SPR (Biacore), anti-Fc capture, ligand in flow; remark: listed apart in the source
Procedure: as §1, with “ActRIIB-Fc:ALK4-Fc” for “ActRIIB-Fc:ALK7-Fc”, “ALK4-Fc homodimer” for “ALK7-Fc homodimeric”, “ALK4-Fc” for “ALK7-Fc”

BMP6 [4] = biological target: T1, BMP6; test: SPR (Biacore), anti-Fc capture, ligand in flow
Procedure: as §1

activin AC = biological target: T2, activin AC; test: SPR (Biacore), anti-Fc capture, ligand in flow
Procedure: as §1

BMP5 = biological target: T3, BMP5; test: SPR (Biacore), anti-Fc capture, ligand in flow
Procedure: as §1

BMP6 [5] = biological target: T1, BMP6; test: SPR (Biacore), 37 C, anti-Fc capture, ligand in flow
Procedure: as §2

BMP6 [6] = biological target: T1, BMP6; test: SPR (Biacore), anti-Fc capture, ligand in flow; remark: listed apart in the source
Procedure: as §1, with “ActRIIB-Fc:ALK4-Fc” for “ActRIIB-Fc:ALK7-Fc”, “ALK4-Fc homodimer” for “ALK7-Fc homodimeric”, “ALK4-Fc” for “ALK7-Fc”

activin A = biological target: B3; test: SPR (Biacore), 37 C, anti-Fc capture, ligand in flow
Procedure: as §2

GDF8 = biological target: T4, GDF8; test: as above
Procedure: as §2

GDF3 = biological target: B4; test: as above
Procedure: as §2

activin B = biological target: T5, activin B; test: as above
Procedure: as §2

GDF11 = biological target: B1; test: as above
Procedure: as §2

BMP10 = biological target: B2; test: as above
Procedure: as §2

BMP9 = biological target: B5; test: as above
Procedure: as §2

Binder: B1
Kd (ActRIIB-Fc homodimer [1]): 0.002 nM
koff (ActRIIB-Fc homodimer [1]): 0.00015 s⁻¹
kon (ActRIIB-Fc homodimer [1]): 9.6e+07 M⁻¹ s⁻¹
Kd (ActRIIB-Fc homodimer [2]): 0.004 nM
koff (ActRIIB-Fc homodimer [2]): 0.00017 s⁻¹
kon (ActRIIB-Fc homodimer [2]): 4.1e+07 M⁻¹ s⁻¹
Kd (ActRIIB-Fc homodimer [3]): 0.002 nM
koff (ActRIIB-Fc homodimer [3]): 0.00011 s⁻¹
kon (ActRIIB-Fc homodimer [3]): 5e+07 M⁻¹ s⁻¹

Binder: B2
Kd (ActRIIB-Fc homodimer [1]): 0.025 nM
koff (ActRIIB-Fc homodimer [1]): 0.00015 s⁻¹
kon (ActRIIB-Fc homodimer [1]): 5.9e+06 M⁻¹ s⁻¹
Kd (ActRIIB-Fc homodimer [2]): 0.004 nM
koff (ActRIIB-Fc homodimer [2]): 0.0002 s⁻¹
kon (ActRIIB-Fc homodimer [2]): 5.1e+07 M⁻¹ s⁻¹
Kd (ActRIIB-Fc homodimer [3]): 0.011 nM
koff (ActRIIB-Fc homodimer [3]): 0.00026 s⁻¹
kon (ActRIIB-Fc homodimer [3]): 2.3e+07 M⁻¹ s⁻¹

Binder: B3
Kd (ActRIIB-Fc homodimer [1]): 0.011 nM
koff (ActRIIB-Fc homodimer [1]): 0.00014 s⁻¹
kon (ActRIIB-Fc homodimer [1]): 1.3e+07 M⁻¹ s⁻¹
Kd (ActRIIB-Fc homodimer [2]): 0.025 nM
koff (ActRIIB-Fc homodimer [2]): 0.00019 s⁻¹
kon (ActRIIB-Fc homodimer [2]): 7.4e+06 M⁻¹ s⁻¹
Kd (ActRIIB-Fc homodimer [3]): 0.019 nM
koff (ActRIIB-Fc homodimer [3]): 0.00023 s⁻¹
kon (ActRIIB-Fc homodimer [3]): 1.2e+07 M⁻¹ s⁻¹

Binder: B4
Kd (ActRIIB-Fc homodimer [1]): 1.5 nM
koff (ActRIIB-Fc homodimer [1]): 0.0022 s⁻¹
kon (ActRIIB-Fc homodimer [1]): 1.4e+06 M⁻¹ s⁻¹
Kd (ActRIIB-Fc homodimer [2]): 1.5 nM
koff (ActRIIB-Fc homodimer [2]): 0.0022 s⁻¹
kon (ActRIIB-Fc homodimer [2]): 1.4e+06 M⁻¹ s⁻¹
Kd (ActRIIB-Fc homodimer [3]): 1.5 nM
koff (ActRIIB-Fc homodimer [3]): 0.0022 s⁻¹
kon (ActRIIB-Fc homodimer [3]): 1.4e+06 M⁻¹ s⁻¹

Binder: B5
Kd (ActRIIB-Fc homodimer [1]): 0.01 nM
koff (ActRIIB-Fc homodimer [1]): 0.001 s⁻¹
kon (ActRIIB-Fc homodimer [1]): 1.2e+08 M⁻¹ s⁻¹
Kd (ActRIIB-Fc homodimer [2]): 0.25 nM
koff (ActRIIB-Fc homodimer [2]): 0.0013 s⁻¹
kon (ActRIIB-Fc homodimer [2]): 5e+06 M⁻¹ s⁻¹
Kd (ActRIIB-Fc homodimer [3]): 0.077 nM
koff (ActRIIB-Fc homodimer [3]): 0.0011 s⁻¹
kon (ActRIIB-Fc homodimer [3]): 1.4e+07 M⁻¹ s⁻¹

Binder: B6
Kd (BMP6 [4]): 0.16 nM
koff (BMP6 [4]): 0.0039 s⁻¹
kon (BMP6 [4]): 2.4e+07 M⁻¹ s⁻¹
Kd (activin AC): 0.16 nM
koff (activin AC): 0.0031 s⁻¹
kon (activin AC): 2e+07 M⁻¹ s⁻¹
Kd (BMP5): 2.9 nM
koff (BMP5): 0.075 s⁻¹
kon (BMP5): 2.6e+07 M⁻¹ s⁻¹
Kd (BMP6 [5]): 0.056 nM
koff (BMP6 [5]): 0.0074 s⁻¹
kon (BMP6 [5]): 1.3e+08 M⁻¹ s⁻¹
Kd (BMP6 [6]): 0.19 nM
koff (BMP6 [6]): 0.0068 s⁻¹
kon (BMP6 [6]): 3.2e+07 M⁻¹ s⁻¹

Binder: B7
Kd (activin A): 0.17 nM
fold faster off-rate vs ActRIIB-Fc homodimer (activin A): ~10 fold
koff (activin A): 0.0015 s⁻¹
kon (activin A): 8.8e+06 M⁻¹ s⁻¹
Kd (BMP6 [5]): 0.056 nM
koff (BMP6 [5]): 0.018 s⁻¹
kon (BMP6 [5]): 3.3e+08 M⁻¹ s⁻¹
Kd (GDF8): 0.15 nM
koff (GDF8): 0.0005 s⁻¹
kon (GDF8): 3.4e+06 M⁻¹ s⁻¹
Kd (GDF3): 10 nM
koff (GDF3): 0.0059 s⁻¹
kon (GDF3): 580000 M⁻¹ s⁻¹
Kd (activin B): 0.025 nM
koff (activin B): 0.00021 s⁻¹
kon (activin B): 8.3e+06 M⁻¹ s⁻¹
Kd (GDF11): 0.009 nM
koff (GDF11): 0.00036 s⁻¹
kon (GDF11): 4e+07 M⁻¹ s⁻¹
Kd (BMP10): 0.042 nM
fold faster off-rate vs ActRIIB-Fc homodimer (BMP10): ~10 fold
koff (BMP10): 0.002 s⁻¹
kon (BMP10): 4.8e+07 M⁻¹ s⁻¹
Kd (BMP9): > 2.8 nM
